Results as given in the RNAGym collection of RNA variant scans (doi:10.1073/pnas.2313332121).

B1: TPR t1 (parent)
chain: GACCAAUCUGCCCUCAGAGCUCGAGAACAUCUUCGGAUGCAGAGGAGGCAGGCUUCGGUGGCGCGAUAGCGCCAACGUCCUCAACCUCCAAUGCAUCCCACCACAUGAUGAUGCCUGAAGAGCCUUGGUUUUUUG

Variants of: B1
Assay: polymerase ribozyme fitness, log enrichment relative to wild type (log ratio); higher = more active; in vitro selection for triplet polymerase activity
Summary of the method: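 PCR was used to build mutant libraries for each subunit of a heterodimeric triplet polymerase ribozyme, which were then transcribed. A single in vitro selection round, in triplicate, used a frozen incubation at −7 °C and recovered extended constructs by gel excision, streptavidin beads and RT-PCR. Fitness is the logarithm of genotype enrichment relative to wild-type enrichment, averaged over replicates with inverse-variance weights. The logarithm is base 2, and after Illumina sequencing only genotypes with ≥10 input reads and ≥1 read per output were kept.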

Variant | polymerase ribozyme fitness (log ratio)
GACCAAUCUGCCCUCAGAGCUCGAGAACAUCUUCGGAUGCAGAGGAGGCAGGCUUCGGUGGCGCGAUAGUGCCAACGUCCUCAACCUCCAAUGCAUACCACCACAUGAUGAUCCCUGAUGAGCCUUCGUUUUUUG [C70U C97A G113C A119U G127C] | -5.36
GACCAAUCUGCCCUCAGAGCUCGAGAACAUCUUCGGAUGCAGAGGACGCAGGCUUCGGUGGCGCGAUAGCGCCAACGUCCUCAACCUCCAAUGCAUCCCACCACAUGAUGAGGCUUGAAGAGCCUUGGUAUUUUG [G47C U112G C115U U130A] | -5.2
GACCAAUCUGCCCUCAGAGCUCGAGAACAUCUUCGGAUGCAGAGGAGGCAGGCUUCGGUGGCGUGAUAGCGCCAACGUCCUCAACCUCCAAUGCAUCCCACCACAUGAUGAUACCUGAAGAGCCUUGGUUUUUUG [C64U G113A] | -1.32
GAUCAAUCUGCCCUCAGAGCUCGAGAACAUCUUCGGAUGCAGAGGAGGCAGGCUUCGGUGGCGCGAUAGCGCCAACGUCCUCAACCUCCAAUGCAUCCCACCACAUGAUGAGGACUGAAGAGCCUUGGUUUUUUG [C3U U112G C114A] | -3.78
GACCAAUCUGCGCUCAGAGCUCGAGAACAUCUUCGGAUGCAUAGGAGGAAGGCUUCGGUGGCGCGAUAGCGCCAACGUCCUCAACCUCCAAUGCAUCCCACCACAUGAUGAUCCCUGAAGAGCCUUGGUUUAUUG [C12G G42U C49A G113C U132A] | -2.5
GACCAAUCUGCCCUCAGAGCUCGAGAACAUCUUCGGAUGCAGAGGAGGCAGGCUUCGGUGGGGCGAUAGCGCCAACGUCCUCAACCUCCAAUGCAUCCCACCACAUGAUGAAGCCUGAAGAGCCUUGGUUUUUUG [C62G U112A] | -0.878
GACCAAUCUGCCCUCAGAGCUCGAGAACAUCUUCGGAUGCACAGGAGGCAGGCUUCGGUGGCGCGAUAGCGCCAACGUCCUCAACCUCCAAUGCAUCCCACCACAUGAUGGUGCCUGAAGCGCCUUGGUUUUUUG [G42C A111G A121C] | -1.57
GACCAAUCUGCCCUCAGAGCUCGAGAACAUCUUCGGAUGCAGAGGAGGCAGGCUUCGGUGGCGCGAUAGCGCCAACGUCUUCAUCCUCCAAUGCAUCCCACCACAUGAUGAUGCCUGAAGAGCCUUGGUUUUUUG [C80U A84U] | -1.02
GACCAAUCUGCACUCAGAGCUCGAGAACAUCUUCGGAUGCAGAGGAGGCAGGCUUCGGUGGCGCGAUAGCGCCAACGUCCUCAACCUCCAAUGCAUCCCACCACAUGAUGAUGCCUGAAGAGGCUUGGUUUUUUG [C12A C123G] | 1.19
GACCAAUCUGCCCUCAGAGCUCGAGAACAUCUUCGGAUGCAGAGGAGCCAGGCUUCGGUGGCGCGAUAGCGCCAACGUCCUCAACCUCCAAUGCAUCCCACCACAUGAUGAUGCCUGAAGAGCCUUGGUUUUUUG [G48C] | -0.943
GACCAAUCUGCCCUCAGAGCUCAAGAACAUCUUCGGAUGCAGAGGAGGCAGGCUUCGGUGGCCCGAUAGCGCCAACGUCCUCAACCUCCAAUGCAUCCCACCACAUGAUGAUGCCUGAAGAGCCUUGGUUUUUUG [G23A G63C] | -3.02
GACCAAUCUGUCCUCAGAGCUCGAGAACAUCUUCGGAUGCAGAGGAGGCAGGCUUCGGUGGCGCGAUAGCGCCAACGUCCUCAACUUCCAAUGCAUCCCACCACAUGAUGAUGCCUGAAGAGCCUUGGUUUUUUG [C11U C86U] | -0.821
GACCAAUCUGCCCUCAGAGCUCGAGAACAUCUUCGGAUGCAGAGGAGGCAGGCUUAGGUGGCUCGAUAGCGCCAACCUCCUCAACCUCCAAUGCAUCCCACCACAUGAUGAUGCGUGAAGAGCCUUGGUUUUUUG [C56A G63U G77C C115G] | -4.37
GACCAAUCUGCCUUCAGAGCUCGAGAACAUCUUCGGAUGCAGAGGAGGCAGGCUUGGGUGGCGCGAUAGCGCCAACGUCCUCAACCUCCAAUGCAUCCCACCACAUGAUGAUGCCUGAAGAGCCUUGGUUUUUUG [C13U C56G] | 0.205
GACCAAUCUGCCCUCAGAGCUCGAGAACAUCUUCGGAUGCAGAGGAGGCAGGCUUGGGUGGCGCGAUAGCGCCAACGUCCUCCACCUCCAAUGCAUCCCAACACAUGAUGAUGCCUGAAGAGCGUUGGUUUUUUG [C56G A83C C101A C124G] | 0.428
GACCAAUCUGCCUUCAGAGCUCGAGAACAUCUUCGGAUGCAGAGGAGGCUGCAUUCGGUGGCGCGAUAGCGCCAACGUCCUCAACCACCAAUGCAUCCCACCACAUGAUGAUGCCUGAAGAGCCUUGGUUUUUUG [C13U A50U G52C C53A U87A] | -3.76
GACCAAUUUGCCCUCAGAGCUCGAGAACAUCUUCGGAUGUAGAGGAGGCAGGCUUCGGUGGCGCGAUAGCGCCAACGUCCUCAACCUCCAAUGCAUCCCACCACAUGAUGAUGCCUGAAGAGCCUUGGUUUUUUG [C8U C40U] | 0.0119
GACCAAUCUGCCCUCAGAGCUCGAGAACAUCUUCGUAUGCAGAGGAGGCAGGCUUCGGUAGCGCGAUAGCGCCAACGUCCUCAACCUCCAAUGUAUCCCACCACAUGAUGAUGCCUGAAGAGCCUUGGUUUUUUG [G36U G60A C94U] | -1.8
GACCCAUCUGCCCUCAGAGCUCGAGAACAUCUUCGGAUGCAGAGGAGGCAGGCUUCGGUGGCGCGAUAGCGCCGACGUCCUCAAACUCCAAUGCAUCCCACCAUAUGAUGAUGCCUGAAGAGCCUUGGUUUUUUG [A5C A74G C85A C104U] | -0.8
GACCAAUCUGCCCUCAGAGCUCUAGAACAUCUUCGGAUGCAGAGGAGGCAUGCUUAGGUGGCCCGAUACCGCCAACGUCCUCAACCUCCAAUGCAUCCCACCACAUGAUGAUGACUGAAGUGCCUUGGUUUUUUG [G23U G51U C56A G63C G69C C114A A121U] | -5.92
GACCAGUAUGCCCUCAGAGCUCGAGAACAUCUUCGGAUGCAGAGGAGGCAGGCUACGGUGGAGCGAUAGCGCCAACGUCCUCAACCUCCAAUGCAUCCCACCACAUGAUGAUGCCUGAAGAGCCUUGGUUUUUUG [A6G C8A U55A C62A] | -0.384

Variant | polymerase ribozyme fitness (log ratio)
GACCAAUCUGCCCUCAGAGCUCGAGAACAUCUUCGGAUGCAGAGGAGGCAGGCUUCGGUGGCGCGAUAGCGCCAACGUCCUCAACCUCCAAUGCAUCCCACCACAUGAAGAUGCCUGAGGAGCCUUGGUUUUUUG [U109A A119G] | -5.27
GACCAAUCUGCCCUCAGAGCACGAGAACAUCUUCGGAUGCAGAGGAGGCAGGCUUCGGUGGAGCGAUAGCGCCAACGUCCUCAACCUCUAAUGCAUCCCACCACAUGAUAACGCCUGAAGAGCCUUGGUUUUUUG [U21A C62A C89U G110A U112C] | -5.55
GACCAAUCUGACCUCAGAGCUCGAGAACAUCUUCGGAUGCAGAGGAGGCAGGCUUCGGUGGCGCGAUAACGCCAACGUCCUCAACCUCCAAUGCAUCCCACCACAUGAUGAUGCCUGAAGAGCCUUGGUUUUUUG [C11A G69A] | -4.25
GACCAAGCUGCCCUCAGAGCUCGAGAACAUCUUCGGAUGUAGAGGAGGCAGGCUUCGGUGGCGCGAUAGCGCCAACGUCCUCAACCUCCAAUGCAUCCCACCACAUGAUGAUGCCUGAAGAGCCUUGGUUUUUUG [U7G C40U] | 0.849
GACCAAUCUGCCCUCAGAGCUCGAGAACAUCUUCGGAUGCAGAGGAGGCAGGCUUCGGUGGCGCGAUAGCGCCAACGUACUCAACCUCCAAUGAAUCCCACCACAUGAUGAUGCCUGAAGAGCCUUGGUUUUUUG [C79A C94A] | -2.38
GACCAAUCUGCCCUCAGAGCUCGAGAACAUCUUCGGAUGCAGAGGAGGCAGGCUUCGGUGGCGCGAUACCGCCAACGUCCUCAACAUCCAAUGUAUCCCACCACAUGAUGAUGUCUGAAGAGCCUUGGUUUUUUG [G69C C86A C94U C114U] | -6.26
GACCAAUCUGCCCUCAGAGCUCGAGAACAUCUUCGGCUGCAGAGGAGGAAGGCUUCGGUGGCGCGCUAGCGCCAACGUCCUCAACCUCCAAUGCAUCCCACCAUAUGAUGAUGCCUGAAGAGCCGUGGUUUUUUG [A37C C49A A66C C104U U125G] | -1.63
GACCAAUCUGCCCUCAGAGCUCGAGAACAUCUUCGGAUGCAGAGGAGGCAGGCUACGGUGUCGCGAUAGCGCCAACGUCCUCAACCUCCAAUGCAUCCCACCACAUGAUGAUGCCUGAAGAGCCUUGGUUUUUUG [U55A G61U] | -0.0687
GACCAAUCAGCCCUCAGAGCUCGAGAACAUCUUCGGAUGCAGAGGAGGCAGGCUUCGGUGGAGCGAUAGCGCCAACGUCCUCAAGCUCCAAUGCAUCCCACCACAUGAUGAUGCCUGAAGAGCCUUGGUUCUUUG [U9A C62A C85G U131C] | -1.16
GACCAAUCUGCCCUCAGUGCUCGAGAACAUCUUCGGAUGCAGAGGAGGCAGGCUUCGGUGGCGCGAUAGCGUCAACGUCCUCAACCUCCAAUGCAUUCCACCACAUGAUGAUGCCUGAAGAGCCUUGGUUUUUUG [A18U C72U C97U] | -3.15
GACCAAUCUGCCCUCAGAGCUCGAGAACAUCUUCGGAUGCAGAGGAGGCAGGCUUCGGUGGCGCGUUAGCGCCAACGUCCUCAACCUCCAAUGCAUCCCACCACAUGAUGAUGCAUGAAGAGCCUUGGUUUUUUG [A66U C115A] | -1.05
GACCAAUCUGCCCUCAGAGCUCGAGAACAUCUUCGGAUGCAGAGGAGGCAGGCUUCGGUGGCGCGAUAGCGGCAACUUCCUCAAUCUCCAAUGCAUCCCACCACAAGAAGAUGCCUGAAGAGCCUUGGUUUUUUG [C72G G77U C85U U106A U109A] | -7.01
GACCAAUCUGCCCUCAGAGCUCGAGAACAUCUUCGGUUGCAGAAGAGGCAGUCUUCGGUGGCGCGAUAGCGCCAACGUACUCAACCUCCAAUGCAUCCCACCACAUGAUGAUUCCUGAAUAGCCUUGGUUUUUUG [A37U G44A G52U C79A G113U G120U] | -5.01
GACCAAUCUGCCCUCAGAGCGCGAGAACAUCUUCGGAUGCAGAGGAAGCAGGCUUCGGUGGCGCGAUAGCGCCAACGUCCUCAACCUCCAAUGCAUCCCCCCACAUGAAGACGCCUGAGGAGCCUUGGUUUUUUG [U21G G47A A100C U109A U112C A119G] | -7.27
GACCAAUCUGCCCUCAGAGCUCGAGAACAUCUUCGGAUGCAGAGGAGGCAGGCUUCGGUGGCGCGAUAGCGCCAACGUCCUCAACCUCCAAUGCAUCCCACCACAUGAUGAUGCCUUAAGAGCCUUGGGUUUUUG [G117U U129G] | -4.23
GACCAAUCUGCCCUCAGAGCUCGAGAACAUCUUCGGAUGCAGAGGAGGCAGGCUUCGGUGGCGCGAUAGCGCCAACGUCCUCAUCCUCCAAUGCAUCCCACCACAUGAUGAUGCCUGAAGAGCCUUGGUUUUGUG [A84U U133G] | -0.42
GACCAAUCUGCCCUCAGAGCUCGAGAACAUCUUCGGAUGCAGAGGAGGCAGGCUUCGGUGGCGCGAUAGUGCCAACGUCCUUCACCUCAAAUACAUCCCACCACAUGAUGAUGCCUGAAGAGCCUUGGUUUUUUG [C70U C82U A83C C89A G93A] | -4.1
GACCAAUCUGCCCUCAGAGCUCGAGAACAUCUUCGGAUGCAGAGGAGACAGGCUUCGGUGGCACGAUAGCGCCAACGUCCUCAACUUCCAAUGCAUCCCACCACAUGAUGAUGCCAGAAGAGCUUUGGUUUUUUG [G48A G63A C86U U116A C124U] | -2.18
GACCAAUCUGCCCUCAGAGCUCGAGAACAUCUUCGGAUGCAGAGGAGGCAGGCUUCGGUGGCGCGGUAGCGCCAACGUCCUCAACCUCCAAUGCAUCCCAACAAAUGAUGAAGUCUGAAGAGCCUUGGUUUUUUG [A66G C101A C104A U112A C114U] | -5.6
GAUCAAUCUGCCCUCAGAGCUCGAGAACAUCUUGGGAUGCAGAGGAGGCAGGCUUCGGUGGCGCGAUAGCGCUAACGUCCUCAACCUCCAAUGCAUCCCACCACAUGAUGAUGCCUGAAGAGUCUUGGUUUUUUG [C3U C34G C73U C123U] | -4.72
GACCAAUCUCCCCUCAGAGCUCGAGAACAUCUUCGGAUGCAGAGGAGGCAGGCUUCGGUGGCGCGAUAGCGCCAACUUCCUCAACCUCCAAUGCAUCCCACCACAUGAUGUUGCCUGAAGAGCCUUGGUUUUUUG [G10C G77U A111U] | -4.57
